In the supplement of paper PMC5998384:

Columns and labels:
[1] = tested on: HeLa Kyoto; test: solubility in G1/S (NP-40 vs SDS abundance) (log2 ratio); higher = more soluble; conditions: cell cycle stage: G1/S
[2] = tested on: HeLa Kyoto; test: melting temperature (median over replicates), in situ; higher = more thermally stable
[3] = tested on: HeLa Kyoto; test: solubility change mitosis vs G1/S (difference of NP-40 vs SDS log2 ratios) (log2 ratio difference); higher = more soluble in mitosis
[4] = tested on: HeLa Kyoto; test: thermal stability score vs G1/S (z-score of summed log2 fold changes over temperatures); higher = more thermally stable than in G1/S
[5] = cell cycle stage: early G1 (4.5 h after nocodazole release)
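Wherever melting temperature (median over replicates), in situ is given: HeLa Kyoto cells synchronized by double thymidine or nocodazole block, proteins quantified by TMT10plex mass spectrometry, three independent biological replicates.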
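Wherever solubility change mitosis vs G1/S (difference of NP-40 vs SDS log2 ratios) is given: synchronized HeLa Kyoto cells (double thymidine block for G1/S, nocodazole release for mitosis), protein amounts in NP-40 versus SDS lysates quantified by mass spectrometry, three biological replicates.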
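Wherever solubility in G1/S (NP-40 vs SDS abundance) is given: HeLa Kyoto cells arrested at G1/S by double thymidine block, proteins quantified by TMT10plex mass spectrometry in mild NP-40 versus SDS extracts, three biological replicates.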
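Wherever thermal stability score vs G1/S (z-score of summed log2 fold changes over temperatures) is given: synchronized HeLa Kyoto cells, proteins quantified by TMT10plex mass spectrometry, three biological replicates, mitosis taken 0.5 h after nocodazole release, G1/S directly after double thymidine block.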

Sequence	solubility in G1/S (log2) [1]	melting temperature ([2]; cell cycle stage: G1/S) [°C]	melting temperature ([2]; cell cycle stage: mitosis) [°C]	solubility change mitosis (log2) [3]	thermal stability score [4, 5]	thermal stability score ([4]; cell cycle stage: mitosis)
MAAVRGLRVSVKAEAPAGPALGLPSPEAESGVDRGEPEPMEVEEGELEIVPVRRSLKELIPDTSRRYENKAGSFITGIDVTSKEAIEKKEQRAKRFHFRSEVNLAQRNVALDRDMMKKAIPKVRLETIYICGVDEMSTQDVFSYFKEYPPAHIEWLDDTSCNVVWLDEMTATRALINMSSLPAQDKIRSRDASEDKSAEKRKKDKQEDSSDDDEAEEGEVEDENSSDVELDTLSQVEEESLLRNDLRPANKLAKGNRLFMRFATKDDKKELGAARRSQYYMKYGNPNYGGMKGILSNSWKRRYHSRRIQRDVIKKRALIGDDVGLTSYKHRHSGLVNVPEEPIEEEEEEEEEEEEEEEEDQDMDADDRVVVEYHEELPALKQPRERSASRRSSASSSDSDEMDYDLELKMISTPSPKKSMKMTMYADEVESQLKNIRNSMRADSVSSSNIKNRIGNKLPPEKFADVRHLLDEKRQHSRPRPPVSSTKSDIRQRLGKRPHSPEKAFSSNPVVRREPSSDVHSRLGVPRQDSKGLYADTREKKSGNLWTRLGSAPKTKEKNTKKVDHRAPGAEEDDSELQRAWGALIKEKEQSRQKKSRLDNLPSLQIEVSRESSSGSEAES [NCBP3]	-0.537	45.6	49.4	0.394	1.38	2.56
MAAVSVYAPPVGGFSFDNCRRNAVLEADFAKRGYKLPKVRKTGTTIAGVVYKDGIVLGADTRATEGMVVADKNCSKIHFISPNIYCCGAGTAADTDMTTQLISSNLELHSLSTGRLPRVVTANRMLKQMLFRYQGYIGAALVLGGVDVTGPHLYSIYPHGSTDKLPYVTMGSGSLAAMAVFEDKFRPDMEEEEAKNLVSEAIAAGIFNDLGSGSNIDLCVISKNKLDFLRPYTVPNKKGTRLGRYRCEKGTTAVLTEKITPLEIEVLEETVQTMDTS [PSMB7]	0.376	60.7	64.5	-0.192	-1.21	-2.39
MAAVVALSLRRRLPATTLGGACLQASRGAQTAAATAPRIKKFAIYRWDPDKAGDKPHMQTYEVDLNKCGPMVLDALIKIKNEVDSTLTFRRSCREGICGSCAMNINGGNTLACTRRIDTNLNKVSKIYPLPHMYVIKDLVPDLSNFYAQYKSIEPYLKKKDESQEGKQQYLQSIEEREKLDGLYECILCACCSTSCPSYWWNGDKYLGPAVLMQAYRWMIDSRDDFTEERLAKLQDPFSLYRCHTIMNCTRTCPKGLNPGKAIAEIKKMMATYKEKKASV [SDHB]	0.659	54.7	56.3	-0.00338	-1.86	-2.8
MAAVVLAATRLLRGSGSWGCSRLRFGPPAYRRFSSGGAYPNIPLSSPLPGVPKPVFATVDGQEKFETKVTTLDNGLRVASQNKFGQFCTVGILINSGSRYEAKYLSGIAHFLEKLAFSSTARFDSKDEILLTLEKHGGICDCQTSRDTTMYAVSADSKGLDTVVALLADVVLQPRLTDEEVEMTRMAVQFELEDLNLRPDPEPLLTEMIHEAAYRENTVGLHRFCPTENVAKINREVLHSYLRNYYTPDRMVLAGVGVEHEHLVDCARKYLLGVQPAWGSAEAVDIDRSVAQYTGGIAKLERDMSNVSLGPTPIPELTHIMVGLESCSFLEEDFIPFAVLNMMMGGGGSFSAGGPGKGMFSRLYLNVLNRHHWMYNATSYHHSYEDTGLLCIHASADPRQVREMVEIITKEFILMGGTVDTVELERAKTQLTSMLMMNLESRPVIFEDVGRQVLATRSRKLPHELCTLIRNVKPEDVKRVASKMLRGKPAVAALGDLTDLPTYEHIQTALSSKDGRLPRTYRLFR [PMPCA]	-0.0271	52.2	51.8	-0.174	0.057	-1.17
MACLLETPIRMSVLSEVTASSRHYVDRLFDPDPQKVLQGVIDMKNAVIGNNKQKANLIVLGAVPRLLYLLQQETSSTELKTECAVVLGSLAMGTENNVKSLLDCHIIPALLQGLLSPDLKFIEACLRCLRTIFTSPVTPEELLYTDATVIPHLMALLSRSRYTQEYICQIFSHCCKGPDHQTILFNHGAVQNIAHLLTSLSYKVRMQALKCFSVLAFENPQVSMTLVNVLVDGELLPQIFVKMLQRDKPIEMQLTSAKCLTYMCRAGAIRTDDNCIVLKTLPCLVRMCSKERLLEERVEGAETLAYLIEPDVELQRIASITDHLIAMLADYFKYPSSVSAITDIKRLDHDLKHAHELRQAAFKLYASLGANDEDIRKKIIETENMMDRIVTGLSESSVKVRLAAVRCLHSLSRSVQQLRTSFQDHAVWKPLMKVLQNAPDEILVVASSMLCNLLLEFSPSKEPILESGAVELLCGLTQSENPALRVNGIWALMNMAFQAEQKIKADILRSLSTEQLFRLLSDSDLNVLMKTLGLLRNLLSTRPHIDKIMSTHGKQIMQAVTLILEGEHNIEVKEQTLCILANIADGTTAKDLIMTNDDILQKIKYYMGHSHVKLQLAAMFCISNLIWNEEEGSQERQDKLRDMGIVDILHKLSQSPDSNLCDKAKMALQQYLA [ARMC8]	-0.0698	51.1	51	-0.195	-0.497	0.122
